Experimental data from patent US6972319B1, “Pituitary adenylate cyclase activating peptide (PACAP)receptor 3 (R3) agonists and their pharmacological methods of use” (priority 1999, dated 2005).

T1: PACAP-R2 (Homo sapiens, UniProt P32241)
T1 construct: expressed in transfected cells; host or cells: CHO cells
T1 sequence (P32241 31-457): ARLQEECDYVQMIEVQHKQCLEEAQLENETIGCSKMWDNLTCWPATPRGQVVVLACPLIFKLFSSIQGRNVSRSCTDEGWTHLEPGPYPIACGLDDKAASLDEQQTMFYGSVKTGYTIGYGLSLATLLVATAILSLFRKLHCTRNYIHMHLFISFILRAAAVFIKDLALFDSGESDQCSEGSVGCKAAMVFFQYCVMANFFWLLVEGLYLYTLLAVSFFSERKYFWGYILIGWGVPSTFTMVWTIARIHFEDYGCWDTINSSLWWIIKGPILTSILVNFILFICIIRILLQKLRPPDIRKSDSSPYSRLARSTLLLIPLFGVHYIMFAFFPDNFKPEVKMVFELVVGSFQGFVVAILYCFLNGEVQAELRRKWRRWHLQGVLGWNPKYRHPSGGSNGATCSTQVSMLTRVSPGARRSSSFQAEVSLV

T2: PACAP-R3 (human, UniProt P41587 24-438)
T2 sequence (looked up): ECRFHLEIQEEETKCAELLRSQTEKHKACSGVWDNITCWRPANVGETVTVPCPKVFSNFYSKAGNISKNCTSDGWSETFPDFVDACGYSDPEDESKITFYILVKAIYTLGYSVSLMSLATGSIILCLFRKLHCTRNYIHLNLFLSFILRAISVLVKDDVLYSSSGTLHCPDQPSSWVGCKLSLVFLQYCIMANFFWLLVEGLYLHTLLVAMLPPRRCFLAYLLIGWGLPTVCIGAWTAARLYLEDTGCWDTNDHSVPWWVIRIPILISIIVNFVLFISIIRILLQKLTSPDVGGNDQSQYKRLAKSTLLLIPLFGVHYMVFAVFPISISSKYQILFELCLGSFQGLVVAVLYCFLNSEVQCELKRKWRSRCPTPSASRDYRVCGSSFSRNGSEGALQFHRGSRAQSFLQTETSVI


molecular target: T1, PACAP-R2; assay: Cyclic AMP SPA on CHO cells transfected with PACAP-R2; assay type: cell-based; settings: cAMP SPA, concentration at which 50% of maximum PACAP27 activity is achieved, NA = no detectable activities, read-out: R2 EC50
Procedure: CHO cells expressing the PACAP R3 were plated in 96-well plates (Costar) at 8×10^4 cell/well and grown at 37 C. for 24 hours in α MEM+nucleosides+glutamine (Giobco BRL), 10% FBS, 100 μg/ml Pen/Strep, 0.3 mg/ml glutamine, 1 mM HEPES, 0.5 mg/ml Geneticin (Gibco BRL). The media was removed and the plates were washed with PBS. The cells were incubated with a peptide, in Hepes-PBS-BSA with 0.4 mg/mlSoybean Trypsin Inhibitor, 0.5 mg/ml Bacitracin, 100 uM IBMX, for 15 min at 37 C. Cyclic AMP in the cell extracts was quantitated using the cAMP SPA direct screening assay system (Amersham Pharmacia Biotech Inc, Piscataway, N.J.,). The peptides shown in Table 3 were assayed for cAMP activity.
EC50 is defined as the concentration of the polypeptide at which 50% of maximum PACAP27 activity is achieved. “NA” denotes no detectable activities. “R3 Selectivity” is derived from the ratio of EC50 at R2 versus EC50 at R3.

EC50 [nM]	Molecule
2	CC[C@H](C)[C@H](NC(=O)[C@H](CO)NC(=O)[C@H](CC(N)=O)NC(=O)[C@H](CC(C)C)NC(=O)[C@H](Cc1ccc(O)cc1)NC(=O)[C@H](CCCCN)NC(=O)[C@H](CCCCN)NC(=O)[C@H](CCSC)NC(=O)[C@H](C)NC(=O)[C@H](CCSC)NC(=O)[C@H](CCC(N)=O)NC(=O)[C@H](CCCCN)NC(=O)[C@H](CCCNC(=N)N)NC(=O)[C@H](CC(C)C)NC(=O)[C@H](CCCNC(=N)N)NC(=O)[C@@H](NC(=O)[C@H](Cc1ccc(O)cc1)NC(=O)[C@H](CC(N)=O)NC(=O)[C@H](CC(=O)O)NC(=O)[C@@H](NC(=O)[C@H](Cc1ccccc1)NC(=O)[C@@H](NC(=O)[C@H](C)NC(=O)[C@H](CC(=O)O)NC(=O)[C@H](CO)NC(=O)[C@@H](N)Cc1c[nH]cn1)C(C)C)[C@@H](C)O)[C@@H](C)O)C(=O)N[C@@H](CCCCN)C(=O)N[C@@H](CC(N)=O)C(=O)N[C@@H](CCCCN)C(=O)N[C@@H](CCCNC(=N)N)C(=O)O [Peptide R3P106]
4	CC[C@H](C)[C@H](NC(=O)[C@H](CO)NC(=O)[C@H](CC(N)=O)NC(=O)[C@H](CC(C)C)NC(=O)[C@H](Cc1ccc(O)cc1)NC(=O)[C@H](CCCCN)NC(=O)[C@H](CCCCN)NC(=O)[C@@H](NC(=O)[C@H](C)NC(=O)[C@H](CCSC)NC(=O)[C@H](CCC(N)=O)NC(=O)[C@H](CCCCN)NC(=O)[C@H](CCCNC(=N)N)NC(=O)[C@H](CC(C)C)NC(=O)[C@H](CCCNC(=N)N)NC(=O)[C@@H](NC(=O)[C@H](Cc1ccc(O)cc1)NC(=O)[C@H](CC(N)=O)NC(=O)[C@H](CC(=O)O)NC(=O)[C@@H](NC(=O)[C@H](Cc1ccccc1)NC(=O)[C@@H](NC(=O)[C@H](C)NC(=O)[C@H](CC(=O)O)NC(=O)[C@H](CO)NC(=O)[C@@H](N)Cc1c[nH]cn1)C(C)C)[C@@H](C)O)[C@@H](C)O)[C@@H](C)O)C(=O)N[C@@H](CCCCN)C(=O)N[C@@H](CC(N)=O)C(=O)N[C@@H](CCCCN)C(=O)N[C@@H](CCCNC(=N)N)C(=O)O [Peptide R3P112]
3	CC[C@H](C)[C@H](NC(=O)[C@H](CO)NC(=O)[C@H](CC(N)=O)NC(=O)[C@H](CC(C)C)NC(=O)[C@H](Cc1ccc(O)cc1)NC(=O)[C@H](CCCCN)NC(=O)[C@H](CCCCN)NC(=O)[C@@H](NC(=O)[C@H](C)NC(=O)[C@H](CCSC)NC(=O)[C@H](CCC(N)=O)NC(=O)[C@H](CCCCN)NC(=O)[C@H](CCCNC(=N)N)NC(=O)[C@H](CC(C)C)NC(=O)[C@H](CCCNC(=N)N)NC(=O)[C@@H](NC(=O)[C@H](Cc1ccc(O)cc1)NC(=O)[C@H](CC(N)=O)NC(=O)[C@H](CC(=O)O)NC(=O)[C@@H](NC(=O)[C@H](Cc1ccccc1)NC(=O)[C@@H](NC(=O)[C@H](C)NC(=O)[C@H](CC(=O)O)NC(=O)[C@H](CO)NC(=O)[C@@H](N)Cc1c[nH]cn1)C(C)C)[C@@H](C)O)[C@@H](C)O)C(C)C)C(=O)N[C@@H](CCCCN)C(=O)N[C@@H](CC(N)=O)C(=O)N[C@@H](CCCCN)C(=O)N[C@@H](CCCNC(=N)N)C(=O)O [Peptide R3P113]
5	CC[C@H](C)[C@H](NC(=O)[C@H](CO)NC(=O)[C@H](CC(N)=O)NC(=O)[C@H](CC(C)C)NC(=O)[C@H](Cc1ccc(O)cc1)NC(=O)[C@H](CCCCN)NC(=O)[C@H](CCCCN)NC(=O)[C@H](C)NC(=O)[C@H](C)NC(=O)[C@H](CCSC)NC(=O)[C@H](CCC(N)=O)NC(=O)[C@H](CCCCN)NC(=O)[C@H](CCCNC(=N)N)NC(=O)[C@H](CC(C)C)NC(=O)[C@H](CCCNC(=N)N)NC(=O)[C@@H](NC(=O)[C@H](Cc1ccc(O)cc1)NC(=O)[C@H](CC(N)=O)NC(=O)[C@H](CC(=O)O)NC(=O)[C@@H](NC(=O)[C@H](Cc1ccccc1)NC(=O)[C@@H](NC(=O)[C@H](C)NC(=O)[C@H](CC(=O)O)NC(=O)[C@H](CO)NC(=O)[C@@H](N)Cc1c[nH]cn1)C(C)C)[C@@H](C)O)[C@@H](C)O)C(=O)N[C@H](C(=O)N[C@@H](CC(N)=O)C(=O)N[C@@H](CCCCN)C(=O)N[C@@H](CCCNC(=N)N)C(=O)O)[C@@H](C)CC [Peptide R3P123]

molecular target: T2, PACAP-R3; assay: cell-based or functional assay; settings: not given

R3 EC50 [nM]	R3 Selectivity	Molecule
0.03	10	HSDAVFTDNYTRLRKQMAVKKYLNSIKN [R3P42]
0.3	> 300	HSDAVFTDNYTRLRKQLAAKKYLNDIKKGG [R3P31]
0.4	200	HSDAVFTDNYTRLRKQLAAKKYLNDIKKG [R3P32]
0.08	10	HSDAVFTDNYTRLRKQMAVKKYLNSILK [R3P43]
0.5	> 200	HSDAVFTDNYTRLRKQLAAKKYLNDIKK [R3P33]
0.3	300	HSDAVFTDNYTRLRKQMAAKKYLNSIKNKN [R3P164]
0.4	> 200	HSDAVFTDNYTRLRKQLAAKKYLNDIKKKRY [R3P36]
1.4	230	HSDAVFTDNYTRLRKQMAAKKYLNDIKKGGT [R3P20]
1.6	24	HSDAVFTDNYTRLRKQLAAKKYLNSIKKGGT [R3P22]
0.7	20	HSDAVFTDNYTRLRKQLAVKKYLNSIKKGGT [R3P25]
0.5	> 200	HSDAVFTDNYTRLRKQLAVKKYLNDIKNGGT [R3P29]
0.4	50	HSDAVFTDNYTRLRKQLAAKKYLNSIKNGGT [R3P30]
0.3	60	HSDAVFTDNYTRLRKQLAVKKYLNDIKKGGT [R3P21]
0.55	> 180	HSDAVFTDNYTRLRKQMAAKKYLNSIKKGGT [R3P26]
0.08	100	HSDAVFTDNYTRLRKQMAVKKYLNSIKK [R3P41]
2.6	> 40	HSDAVFTDNYTRLRKQLAAKKYLNDIKKNQ [R3P35]
1.4	> 70	HSDAVFTDNYTRLRKQLAAKKYLNDIKKQ [R3P34]
0.2	–	HSDAVFTDNYTRLRKQMAAKKYLNSIKNKM [R3P163]
